Reference: patent US20230183329A1, “COMBINATION THERAPY FOR TTR AMYLOIDOSIS” (Neurimmune AG, priority 2020, published 2023)

Tests used:
[1] = cited from earlier work
[2] = target: T1, soluble ATTR oligomers (mis.WT-TTR) (Homo sapiens, UniProt P02766); experiment: BLI binding kinetic assay, soluble ATTR oligomers; conditions: in presence or absence of AG10 or diflunisal at 5 μg/mL
T1 construct: Plasma-purified wtTTR was provided as a solution at a concentration of 2 mg/mL in PBS buffer; from tissue; host or cells: human plasma
Description: (§1) The antibody NI-301.37F1 was loaded on anti-human capture sensors at 5 μg/mL in PBS for 5 min at 25° C. The binding assay was performed with soluble WT-TTR amyloid aggregates and tetrameric WT-TTR. A baseline was performed in 1× kinetic buffer for 3 min, the association was measured for 10 min and the dissociation for another 10 min in 1× kinetic buffer, all steps performed at 25° C. with shaking at 1000 rpm. A reference sample was also included consisting in 1× kinetic buffer.
(§2) Data were analyzed in ForteBio Data Analysis 8.2 software, using reference subtraction and interstep correction between association and dissociation.
NI-301.37F1 absent binding to TTR tetramers was investigated in presence and absence of TTR stabilizers using BLI. Soluble ATTR oligomers were included in this experiment to serve as positive controls.
NI-301.37F1 binding to ATTR oligomers and TTR tetramers was evaluated in presence of the TTR stabilizers AG10 and diflunisal at 5 μg/mL, or in presence of corresponding vehicle buffer using BLI.

mis.WT-TTR aggregates = target: T2, mis.WT-TTR aggregates (Homo sapiens, UniProt P02766); experiment: Direct ELISA, NI-301.37F1 binding to amyloid wtTTR aggregates in presence of TTR tetramer stabilizers; conditions: for EC50 value of antibody binding to TTR amyloid: versus vehicle
T2 construct: Plasma-purified wtTTR was provided as a solution at a concentration of 2 mg/mL in PBS buffer; from tissue; host or cells: human plasma
Description: 96 well microplates were coated for 1 hour at 37° C. with mis.WT-TTR aggregates diluted to a concentration of 10 μg/mL in PBS buffer pH7.4. Non-specific binding sites were blocked for 1 hour at room temperature (RT) with a blocking buffer containing 2% bovine serum albumin (BSA) and 0.1% tween-20 in PBS buffer. Human NI-301.37F1 antibody was diluted in duplicates to the indicated concentrations in PBS supplemented with tafamidis or diflunisal at 10 μg/mL or corresponding concentration of vehicle buffer, and incubated overnight at 4° C. Binding was determined using an anti-human IgG antibody conjugated with horseradish peroxidase (HRP), followed by measurement of HRP activity in a standard colorimetric assay.
Data were analyzed with the Prism software from GraphPad. EC50 values were estimated using non-linear regression of individual data points using log(agonist) versus response model with variable slope. Data fitting was performed with the least square regression method.
For the assessment of the binding affinity of anti-TTR antibody in the presence of TTR tetramer stabilizer direct ELISA and EC50 determination has been substantially performed in Example 3 of WO 2015/092077 A1. ELISA plates were coated for 1 h at 37° C. with amyloid wtTTR aggregates and blocked for 1 h at room temperature with blocking buffer (PBS pH 7.4, 1% BSA and 0.1% polysorbate 20).
Tafamidis and diflunisal were dissolved in vehicle (80% PBS pH 7.4, 10% ethanol, 10% polysorbate 80) and antibody NI-301.37F1 dilution series were prepared with tafamidis or diflunisal at a final concentration of 10 μg/mL or a corresponding volume of the vehicle. The concentration of 10 μg/mL is […] the maximal peak concentration in patients treated with tafamidis at 80 mg per day (˜6 μg/mL). NI-301.37F1 dilution series were incubated in the ELISA plates overnight at 4° C., and, after washes, NI-301.37F1 was detected using an horseradish peroxidase (HRP)-coupled anti-human IgG antibody and standard detection methods. Data were analyzed with the Prism software from GraphPad. […]

misfolded TTR = misfolded TTR (Homo sapiens, UniProt P02766); conditions: cited from earlier work
[3] = target: T3, TTR tetramers (tetr.WT-TTR) (Homo sapiens, UniProt P02766); experiment: BLI binding kinetic assay, TTR tetramers
T3 construct: Plasma-purified wtTTR was provided as a solution at a concentration of 2 mg/mL in PBS buffer; from tissue; host or cells: human plasma
Description: as §1, §2
NI-301.37F1 absent binding to TTR tetramers was investigated in presence and absence of TTR stabilizers using BLI. Soluble ATTR oligomers were included in this experiment to serve as positive controls. […]

O=C(O)c1ccc2nc(-c3cc(Cl)cc(Cl)c3)oc2c1 [tafamidis]
mean half-life ([1]; human): approximately 49 hours
maximal peak concentration ([1]; patients treated with tafamidis at 80 mg per day): ~6 µg/mL

B1: NI-301.37F1: human-derived monoclonal anti-TTR antibody binding epitope TTR41-45, selective for misfolded TTR, disclosed in WO 2015/092077 A1 (antibody, V domains shown)
VH: QVQLQESGPGLVKPSETLSLTCSVSGGSIISRSSYWGWIRQPPGKGLEWIGGIYHSGNTYDNPSLKSRLTMSVDTSKNQFSLNLRSVTAADTAVYYCARIVPGGDAFDIWGQGTMVTVSS
VL: DIQMTQSPSSLSASVGDRVTIACRASQSVGTYLNWYQQKRGKAPKLLIFAASSLQSGVPSRFSGSGSGTDFTLTISSLQPEDFATYYCQQSYSSPPTFGQGTKVEIK
binding to ATTR oligomers in solution [2]: virtually identical
binding to amyloidogenic TTR (mis.WT-TTR aggregates; in the presence of TTR stabilizers tafamidis and diflunisal, 10 μg/mL): maintained
EC50 value of antibody binding to TTR amyloid (mis.WT-TTR aggregates; in the presence of diflunisal at 10 μg/mL): increased
EC50 value of antibody binding to TTR amyloid (mis.WT-TTR aggregates; in the presence of tafamidis at 10 μg/mL): remained substantially unaffected
binding affinity to misfolded TTR (misfolded TTR): sub-nanomolar range
binding to TTR-diflunisal complexes ([3]; TTR tetramers in presence of diflunisal): did not bind
binding to TTR-tafamidis complexes ([3]; TTR tetramers in presence of tafamidis): did not bind
binding selectivity (absent binding to TTR tetramers) ([3]; in presence of TTR stabilizers (conclusion)): maintained
binding to TTR tetramers in solution ([3]; no stabilizer): did not bind
